# Test results from patent publication US20250161357A1, “HUMAN T CELL RECEPTOR PAIRS REACTIVE WITH HLA-A*02:01 RESTRICTED HUMAN PROSTATIC ACID PHOSPHATASE (PAP) EPITOPES” (The Regents of the University of California, priority 2022, published 2025).
# T1: PAP (Homo sapiens, UniProt P15309)
# T1 sequence (P15309 33-386): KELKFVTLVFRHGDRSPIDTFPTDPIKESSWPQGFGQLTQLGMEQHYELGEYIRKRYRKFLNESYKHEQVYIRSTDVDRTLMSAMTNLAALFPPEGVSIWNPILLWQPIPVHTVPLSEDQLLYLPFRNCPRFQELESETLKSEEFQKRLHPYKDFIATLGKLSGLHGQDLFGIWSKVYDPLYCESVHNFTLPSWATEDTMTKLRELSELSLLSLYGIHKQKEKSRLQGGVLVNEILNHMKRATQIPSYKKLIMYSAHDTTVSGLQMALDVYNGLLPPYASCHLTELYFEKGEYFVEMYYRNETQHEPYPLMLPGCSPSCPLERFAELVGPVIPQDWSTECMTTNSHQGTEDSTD
# T2: prostatic acid phosphatase (PAP); peptide PAP_A2_21 peptide on HLA-A*02:01 (human)
# T2 peptide: LLLARAASLSL
# T3: prostatic acid phosphatase (PAP); peptide PAP_A2_25 peptide on HLA-A*02:01 (human)
# T3 peptide: IMYSAHDTTV
# T4: prostatic acid phosphatase (PAP); peptide PAP_A2_14 peptide on HLA-A*02:01 (human)
# T4 peptide: ILLWQPIPV
# B1: PAP-A2-22 peptide TLMSAMTNL (peptide)
# peptide: TLMSAMTNL
# B2: PAP-A2-21 peptide LLLARAASLSL (peptide)
# peptide: LLLARAASLSL
# notes: also called PAP-21
# B3: PAP-TCR-225 (TCR, V domains shown)
# Valpha: DQQVKQNSPSLSVQEGRISILNCDYTNSMFDYFLWYKKYPAEGPTFLISISSIKDKNEDGRFTVFLNKSAKHLSLHIVPSQPGDSAVYFCAASVDEKLTFGTGTRLTIIP
# Vbeta: DTGVSQNPRHKITKRGQNVTFRCDPISEHNRLYWYRQTLGQGPEFLTYFQNEAQLEKSRLLSDRFSAERPKGSFSTLEIQRTEQGDSAMYLCASSLQVEQFFGPGTRLTVL
# B4: PAP-TCR-213 (TCR, V domains shown)
# Valpha: TQLLEQSPQFLSIQEGENLTVYCNSSSVFSSLQWYRQEPGEGPVLLVTVVTGGEVKKLKRLTFQFGDARKDSSLHITAAQPGDTGLYLCAGAPETSGSRLTFGEGTQLTVNP
# Vbeta: GAGVSQTPSNKVTEKGKYVELRCDPISGHTALYWYRQSLGQGPEFLIYFQGTGAADDSGLPNDRFFAVRPEGSVSTLKIQRTERGDSAVYLCASSFGGGSSPLHFGNGTRLTVT
# B5: PAP-TCR-204 (TCR, V domains shown)
# Valpha: AQSVTQPDIHITVSEGASLELRCNYSYGATPYLFWYVQSPGQGLQLLLKYFSGDTLVQGIKGFEAEFKRSQSSFNLRKPSVHWSDAAEYFCAVGAGDYKLSFGAGTTVTVRA
# Vbeta: ETGVTQTPRHLVMGMTNKKSLKCEQHLGHNAMYWYKQSAKKPLELMFVYSLEERVENNSVPSRFSPECPNSSHLFLHLHTLQPEDSALYLCASSQTTGQPQHFGDGTRLSIL
# B6: PAP-A2-20 peptide KVYDPLYCESV (peptide)
# peptide: KVYDPLYCESV
# B7: PAP-TCR-175 (TCR, V domains shown)
# Valpha: ILNVEQSPQSLHVQEGDSTNFTCSFPSSNFYALHWYRWETAKSPEALFVMTLNGDEKKKGRISATLNTKEGYSYLYIKGSQPEDSATYLCAFEDSGYSTLTFGKGTMLLVSP
# Vbeta: DAGITQSPRYKITETGRQVTLMCHQTWSHSYMFWYRQDLGHGLRLIYYSAAADITDKGEVPDGYVVSRSKTENFPLTLESATRSQTSVYFCASGGLAGVDEQYFGPGTRLTVT
# Legend:
# [1] = target: HLA-A*02:01 (Homo sapiens, UniProt P04439, D140Y/D185E/D98H/E176V/E277Q/G131W/G231S/I119V/I121R/I166T/I218V/L300P/L318F/N151K/N90K/P208A/P217A/Q86G/Q94H/R138H/R169H/T345S); assay: T2 peptide binding (stabilization) assay; format: cell-based; details: peptides exogenously pulsed on T2 cells; anti-HLA-A2 FITC (BB7.2), FACS
# [2] = target: T5, HLA-A*02:01 (Homo sapiens, UniProt P04439, D140Y/D185E/D98H/E176V/E277Q/G131W/G231S/I119V/I121R/I166T/I218V/L300P/L318F/N151K/N90K/P208A/P217A/Q86G/Q94H/R138H/R169H/T345S/Y108C); assay: Secreted single-chain trimer (SCT) quantification assay
# T5 construct: made in house
# Excerpt: Peptide-MHC I complexes processed by endogenous machinery might show different stability compared to exogenous peptide pulsing (such as in T2 binding assays). This can be the result of post-translational modifications (PTMs). A recently developed technique, secreted single-chain trimer (SCT), was used to evaluate relative stability of pMHC of interest (36). In the secreted SCT construct, MHC I heavy chain (HLA-A*02:01 alpha chain with H74L and Y84C mutation), light chain (beta-microglobulin), and corresponding peptide were tethered by linkers as one single chain molecule (FIG. 3a). Constructs were expressed in cells and released into culture supernatant. Only peptides favored by HLA-A*02:01 are expected to generate a stable SCT and have higher yields. The quantity of SCTs was measured by band intensity on SDS-PAGE and normalized against a well-known WT1 cancer epitope that is restricted on HLA-A*02:01 ([…]) (FIG. 3b) (37, 38).
# SCT quantification assay: SCT constructs (mutant H74L/Y84C) with individual PAP peptides were synthesized according to the previously published protocol (36).
# [3] = men with metastatic castration-resistant prostate cancer; cited from earlier work
# [4] = target: T1, PAP; details: positive response SI>5 at week 6 post immunization; cited from earlier work
# [5] = system: PAP+ target cells; details: video evidence; cited from earlier work
# [6] = target: T6, HLA-A*02:01 on T2 cells (human); assay: T2 binding assay, HLA-A2 on T2 cells by anti-A2 (BB7.2) FITC flow cytometry
# T6 construct: also called HLA-A2; A2
# [7] = target: T6, HLA-A*02:01 on T2 cells; assay: T2 stabilization assay, HLA-A2 on T2 cells by anti-A2 (BB7.2) FITC flow cytometry
# [8] = target: T2, prostatic acid phosphatase (PAP); …; assay: activation reporter or marker
# [9] = target: T3, prostatic acid phosphatase (PAP); …; assay: cytokine release
# [10] = target: T4, prostatic acid phosphatase (PAP); …; assay: multimer staining
molecule,measurement,setting,value
ILLWQPIPV (listed as Homo sapiens) [PAP-A2-14],HLA-A2 signal in T2 assay (slope of natural log of A2 fluorescent intensity vs diluted peptide concentration),[1],Positive
IMYSAHDTTV (listed as Homo sapiens) [PAP-A2-25],HLA-A2 signal in T2 assay (slope of natural log of A2 fluorescent intensity vs diluted peptide concentration),[1],Positive
KVYDPLYCESV (listed as Homo sapiens) [PAP-A2-20],HLA-A2 signal in T2 assay (slope of natural log of A2 fluorescent intensity vs diluted peptide concentration),[1],Positive
LLLARAASLSL (listed as Homo sapiens) [PAP-A2-21],HLA-A2 signal in T2 assay (slope of natural log of A2 fluorescent intensity vs diluted peptide concentration),[1],Positive
SVHNFTLPSW (listed as Homo sapiens) [PAP-A2-24],affinity toward HLA-A*02:01 after glycosylation,[2]; N-glycosylated peptide in SCT,altered affinity
same,SCT yield normalized to control WT1 epitope (RMFPNAPYL),"[2]; band intensity on SDS-PAGE, cutoff 0.2 for relatively high stability",1.40
sipuleucel-T,median improvement in overall survival,[3],4.1 months
same,patients displaying T cell proliferation responses to PAP,[4],27.2%
same,lysis of PAP+ target cells by T cells from treated patients,[5],capable of lysing
B1,binding result,[6],binds
B2,binding result,[7],binds
B3,binding result,[8],recognises
B4,binding result,[9],recognises
B5,binding result,[10],recognises
B6,binding result,[7],binds
B7,binding result,[8],recognises
